This is an account of results in publication PMC6719061.

Assay [1] concerns the target Lst-ABD, recombinant fusion protein with lysostaphin at the N-terminus and the albumin-binding domain from streptococcal protein G at the C-terminus (not stated | Streptococcus sp.).
Assay [2] shares this target. Briefly: photonic crystal-based biosensor (EVA 2.0); Lst-ABD immobilised covalently by amine coupling (EDC/NHS) on a carboxylate-derivatized photonic crystal chip; albumin in PBST (PBS + 0.02% Tween-20, pH 7.4) pumped through the flow cell, ~5 min association, ~5 min dissociation; RSA 250, 42, 7 and 1.2 µg/mL, BSA 1 mg/mL; heterogeneous binding model with two independent sites, koff1 = koff2 fixed.

As to “rat serum albumin (from UniProt P02770 25-608) (natural protein)”, in assay [1], the rate of clearing of S. aureus ATCC 29213 cell suspension (turbidimetry, OD 550 nm) by Lst-ABD in the presence of 100 µg/mL RSA, relative to lysostaphin is 25%. For the same substance, in assay [2], the KD1 (high-affinity site) is 2.3 nM, the KD2 (low-affinity site) was determined as 20 nM, the koff was 5.9e-05 s⁻¹ and the kon1 (high-affinity site) is 26000 M⁻¹ s⁻¹. The kon2 (low-affinity site) in assay [2] was determined as 3000 M⁻¹ s⁻¹.

For orientation: koff means the rate constant with which the complex falls apart.
